Experiment [1] deals with T1, cynomolgus monkey TIGIT, full length, on cells (cynomolgus monkey).
T1 construct: Whole entry of 312 amino acids; also called cyno TIGIT; cTIGIT
Put plainly: flow cytometry on CHO-K1 cells expressing cyno TIGIT. On the procedure: (§1) These clones were further expanded, and antibodies were purified using a Protein G column. These purified antibodies were tested for binding to human and cyno TIGIT expressed on cell surface by flow cytometry. Stable CHO-K1 cell lines expressing full length human TIGIT clone 2A7 (Swiss-Prot Q495A1; SEQ ID NO: 80) or full length cyno TIGIT clone C10 (Swiss-Prot A0A2K5UW92; SEQ ID NO: 84) were developed. For the flow assay, cells were collected and incubated in 100 μL of HBSS buffer in the presence (or absence) of various concentrations of antibodies for 1 hr at 4° C. After washing with HBSS, antibody binding on cells was detected with 2 μg/mL of Alexa488-labeled goat anti-mouse IgG antibody (ThermoFisher Scientific, Cat #A-11001) for 30 min at 4° C. Cells were then washed and resuspended in PBS and subjected to flow cytometry using an Attune NxT flow cytometer (ThermoFisher Scientific, Waltham, Mass.). The geometric mean of the fluorescence intensity was obtained for the whole single cell population. Antibodies capable of binding to both human and cyno TIGIT expressed on cell surface were further tested for their blocking activity against recombinant human CD155 binding to human TIGIT on the surface of CHO cells. CHO-hTIGIT cells (10⁵ cells) were incubated with 2.5 μg/mL hCD155-Fc protein in the presence of various concentrations of antibody at room temperature for 1 hr. […] Cells were then washed and subjected to flow cytometry analysis.

The target of experiment [2] is T2, human TIGIT, full length, on cells (human, UniProt Q495A1 22-244).
T2 construct: also called hTIGIT; hTIGIT-CHO
T2 sequence: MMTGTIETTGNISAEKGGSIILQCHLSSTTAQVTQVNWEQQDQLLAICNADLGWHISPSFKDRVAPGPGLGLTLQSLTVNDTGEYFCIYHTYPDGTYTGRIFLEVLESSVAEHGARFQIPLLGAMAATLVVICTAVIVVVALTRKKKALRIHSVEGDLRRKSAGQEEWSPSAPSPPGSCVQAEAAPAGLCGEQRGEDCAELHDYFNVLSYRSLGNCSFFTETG
Put plainly: flow cytometry, inhibition of hCD155-Fc binding to CHO-hTIGIT cells. The method, then: as §1
(A flow cytometer gives signals particle by particle.)

Experiment [3] has as its target T2, human TIGIT, full length, on cells. In words: flow cytometry on CHO-K1 cells expressing human TIGIT. The method, then:
as §1

The target in experiment [4] is T3, soluble His-tagged TIGIT (Acro Biosystems, Cat #No. TIT-H52H3) (human, UniProt Q495A1 22-141).
T3 construct: Bought protein; also called His-tagged human TIGIT
T3 sequence (looked up): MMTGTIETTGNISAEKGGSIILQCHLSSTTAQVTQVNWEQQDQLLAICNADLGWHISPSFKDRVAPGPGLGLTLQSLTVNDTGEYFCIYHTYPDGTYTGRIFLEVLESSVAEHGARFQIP
In words: SPR, ProteOn XPR36, antibody on Protein A chip, soluble His-tagged TIGIT as analyte, 25 C. The method, then:
The kinetic binding of these recombinant anti-TIGIT antibodies to human TIGIT was determined by surface plasmon resonance (SPR) using a Bio-Rad ProteOn XPR36 instrument. Recombinant antibodies were immobilized using a Protein A coated GLC sensor chip, and soluble His-tagged TIGIT (Acro Biosystems, Cat #No. TIT-H52H3) was used as the analyte. The binding constants were determined at 25° C.
On the technique in general: In SPR one partner is held on a chip, and binding of the other changes the refractive index at the surface.

Experiment [5] addresses T2, human TIGIT, full length, on cells. In words: flow cytometry, endogenous TIGIT on isolated human CD4+ T cells. On the procedure:
(§2) The ability of chimera anti-TIGIT antibodies to bind to endogenously expressed TIGIT on isolated human CD4⁺ and CD8⁺ cells was tested using a flow cytometry assay. Human CD4⁺ or CD8⁺ T cells were isolated from human whole blood using RosetteSep™ Human CD4⁺ T cell Enrichment Cocktail (Stemcell, Cat #15022) or Human CD8⁺ T cell enrichment Cocktail (Stemcell, […]), respectively. […] However, differences in max binding activity (MFImax) was observed between clones.

The target is the same in experiment [6]. Put plainly: flow cytometry, endogenous TIGIT on isolated human CD8+ T cells. On the procedure:
as §2

Experiment [7] deals with T1, cynomolgus monkey TIGIT, full length, …. Put plainly: flow cytometry on cTIGIT-CHO cells. The method, then:
as §1
(§3) The binding capability of these chimera anti-TIGIT antibodies to cell surface overexpressed human and cyno TIGIT was confirmed utilizing the flow cytometry assay previously described. After incubation of chimera anti-TIGIT antibody with hTIGIT-CHO or cTIGIT-CHO, bound antibody was detected using Alexa488 conjugated goat anti-human IgG antibody (ThermoFisher Scientific, Cat #A-11013). Antibody functional activity in inhibiting recombinant hCD155-hFc binding to hTIGIT-CHO-K1 cells was also determined using flow assay as previously described.

Experiment [8] has as its target T2, human TIGIT, full length, on cells. In words: flow cytometry on hTIGIT-CHO cells. On the procedure:
as §1, §3

Experiment [9] shares this target. In words: flow cytometry, inhibition of hCD155-hFc binding to hTIGIT-CHO-K1 cells. On the procedure:
as §1, §3

The source of these data is US20220064294A1 (ARCUS BIOSCIENCES, published 2022).

Changes are numbered by the printed parent chain.

B1: 24F8 (antibody, V domains shown)
VH: DVQLQESGPDLVKPSQSLSLTCTVTGYSITSGYSWHWIRQFPGNKLDWMGYVHYSGSTNYNPSLKSRISITRDTSKNQFFLQLNSVTTEDTATFYCARMDYGNYGGAMDYWGQGTSVTVSS
VL: EIVMTQSHKFMSTSVGDRVSITCKASQDVRTAVAWYQQKPGQSPKLLIYSASYRYTGVPDRFTGSGSGTDFTFTISSVQAEDLAVYYCQQYYSTQWTFGGGTKLEIK
notes: Mouse monoclonal antibody purified from hybridoma on Protein G; also called mAb 24F8; mouse anti-TIGIT clone 24F8
The term EC50 denotes the concentration at which the effect is half-maximal. The term IC50 denotes the point on the concentration scale where inhibition reaches its midpoint. Regarding B1, the EC50 in [1] came out at 1850 pM; in experiment [3], 1310 pM. The same molecule returned an IC50 in [2] of 1790 pM.

B2: Ch30M18 (antibody, human IgG1, V domains shown)
VH: EVQLQQSGPELVKPGASVKISCKTSGYTFTEYTMHWVKQSHGKSLEWIGGINPNNGGTSYNQKFKGKATLTVDKSSSTAYMELRSLTSEDSAVYYCARSGHMDYGYVYWGQGTTLTVSS
VL: B1 VL with E1D, D28Y, R30S, A51P, Y91H, Q95P
notes: also called recombinant anti-TIGIT mouse/human chimera antibody 30M18
What is called Kd is the concentration at which binding is half-saturated. In general, koff refers to the first-order rate constant of dissociation. One may read the kon as the second-order rate constant of association. As to B2, in experiment [4], binding was put at a Kd of 2380 pM, the koff stood at 0.00173 s⁻¹ and the kon stood at 727000 M⁻¹ s⁻¹. In experiment [5], the “CD4+ MFImax” value was found to be 125 MFI and the concentration giving a half-maximal response (EC50) stood at 197 pM. In addition, in experiment [6], the “CD8+ MFImax” value is 3500 MFI and the EC50 stood at 293 pM. The EC50 in experiment [7] is 6140 pM. Further, the response in [8] was half-maximal at 336 pM (EC50). The molecule also returned an IC50 in [9] of 2180 pM.

B3: 30M18 (antibody, V domains shown)
VH: B2 VH
VL: B1 VL with E1D, D28Y, R30S, A51P, Y91H, Q95P
notes: Mouse monoclonal antibody purified from hybridoma on Protein G; also called mAb 30M18; mouse anti-TIGIT clone 30M18
With B3, the EC50 in experiment [1] stood at 1170 pM; in experiment [3], 825 pM. The molecule further showed an IC50 in [2] of 2190 pM.

B4: Ch5J24 (antibody, human IgG1, V domains shown)
VH: QVQLQQSGAELVRPGTSVKMSCKAAGYTFTNHWIGWVKQRPGHGLEWIGDIYPGGGYTNYNEKFKGKATLTADTSSSTAYMYLSSLTSEDSAIYYCARSYGYDLYAMDYWGQGTSVTVSS
VL: DIQMTQSPSSLSASLGERVSLTCRASQEISGYLSWLQQKPDGTIKRLIYAASTLGSGVPKRFSGSRSGSDYSLTISSLESEDFADYYCLQYDSYPFTFGAGTKLELK
notes: also called recombinant anti-TIGIT mouse/human chimera antibody 5J24
In experiment [4], B4 had a Kd of 3850 pM, a koff of 0.0214 s⁻¹ and a kon of 5.57e+06 M⁻¹ s⁻¹. Further, in experiment [5], the “CD4+ MFImax” value was 125 MFI and the EC50 is 73 pM. Further, in [6], the “CD8+ MFImax” value was 4500 MFI and it took 117 pM to reach a half-maximal effect (EC50). The EC50 in experiment [7] came out at 212 pM. The EC50 in experiment [8] amounted to 131 pM. The IC50 in experiment [9] came to 700 pM.

B5: Ch21B9 (antibody, human IgG1, V domains shown)
VH: EVQLVESGGGLVKPGGSLKLSCTASGFTFSSYAMSWVRQSPEKRLEWVAEISSGGSYTYYTDTVTGRFTISRDNAKNTLYLEMSSLRSEDTAMYYCARKRRDYYGMDYWGQGTSVTVSS
VL: DVQITQSPSYLAASPGETITINCRASKSISKYLAWYQEKPGKTNKLLIYSGSTLQTGIPSRFSGSGSGTDFTLTISSLEPEDFAMYYCQQHNEYPWTFGGGTKLEIK
notes: also called recombinant anti-TIGIT mouse/human chimera antibody 21B9
Consider B5, for which, in [4], the Kd came to 7100 pM, the koff was found to be 0.074 s⁻¹ and the kon was determined as 1.05e+07 M⁻¹ s⁻¹. Further, in [5], the “CD4+ MFImax” value was 150 MFI and the EC50 was 29 pM. In [6], the “CD8+ MFImax” value was found to be 4500 MFI and the midpoint of the response, the EC50, lay at 62 pM. For the same molecule, in experiment [7], the EC50 was found to be 180 pM. Besides, the EC50 in [8] is 102 pM. In addition, the IC50 in experiment [9] is 800 pM.

B6: Ch22B22 (antibody, human IgG1, V domains shown)
VH: B5 VH with T23A, T61P, G105A
VL: B5 VL with T56S
notes: Expressed in HEK293, purified on Protein A; also called recombinant anti-TIGIT mouse/human chimera antibody 22B22
On to B6, for which, in experiment [4], the Kd came to 9780 pM, the koff stood at 0.0141 s⁻¹ and the kon is 1.44e+06 M⁻¹ s⁻¹. For the same molecule, in [5], the “CD4+ MFImax” value is 140 MFI and the EC50 is 97 pM. For the same molecule, in experiment [6], the “CD8+ MFImax” value was 5000 MFI and a half-maximal response (EC50) required 175 pM. Further, a half-maximal response in experiment [7] (EC50) required 240 pM. Further, in [8], the EC50 turned out to be 160 pM. In experiment [9], this molecule gave an IC50 of 1160 pM.

B7: Ch21B16 (antibody, human IgG1, V domains shown)
VH: B5 VH with T23A, S31T, S56T, Y60F, T61P, G105A
VL: B5 VL with T56S, M85V
notes: also called recombinant anti-TIGIT mouse/human chimera antibody 21B16
In [4], B7 gave a Kd of 6300 pM, a koff of 0.00929 s⁻¹ and a kon of 1.47e+06 M⁻¹ s⁻¹. For the same molecule, in experiment [5], the “CD4+ MFImax” value amounted to 180 MFI and the EC50 was determined as 119 pM. In experiment [6], the “CD8+ MFImax” value is 5200 MFI and a half-maximal response (EC50) required 160 pM. It took 420 pM to reach a half-maximal effect in [7] (EC50). In [8], this molecule displayed an EC50 of 120 pM. In addition, in [9], the IC50 was determined as 200 pM.

B8: Ch28O12 (antibody, human IgG1, V domains shown)
VH: B5 VH with T23A, S31N, S53G, Y60H, T61P, G105A
VL: B5 VL with T56S
notes: also called recombinant anti-TIGIT mouse/human chimera antibody 28O12
For B8, in experiment [4], the Kd is 904 pM, the koff amounted to 0.00113 s⁻¹ and the kon was 1.26e+06 M⁻¹ s⁻¹. Also, in [5], the “CD4+ MFImax” value came to 190 MFI and the EC50 came out at 141 pM. Further, in [6], the “CD8+ MFImax” value was 7200 MFI and the response was half-maximal at 249 pM (EC50). Besides, in experiment [7], a half-maximal effect (EC50) was put at 358 pM. Moreover, the EC50 in experiment [8] turned out to be 159 pM. Further, the IC50 in [9] worked out at 480 pM.
